For this test, the target named is HLA-A*02:01 (Homo sapiens, UniProt P04439, D140Y/D185E/D98H/E176V/E277Q/G131W/G231S/I119V/I121R/I166T/I218V/L300P/L318F/N151K/N90K/P208A/P217A/Q86G/Q94H/R138H/R169H/T345S). As to the kind of experiment: MHC binding assay (UV-ligand exchange, β2m ELISA, peptide exchange yield). As to conditions: MHC class I binding score; binding to HLA-A*02:01 ranged by peptide exchange yield (UV-ligand exchange, β2m ELISA). The source says:
Candidate peptides for T cell based therapies according to the present invention were further tested for their MHC binding capacity (affinity). The individual peptide-MHC complexes were produced by UV-ligand exchange, where a UV-sensitive peptide is cleaved upon UV-irradiation, and exchanged with the peptide of interest as analyzed. Only peptide candidates that can effectively bind and stabilize the peptide-receptive MHC molecules prevent dissociation of the MHC complexes. To determine the yield of the exchange reaction, an ELISA was performed based on the detection of the light chain (β2m) of stabilized MHC complexes. The assay was performed as generally described in Rodenko et al. (Rodenko et al., 2006).
96 well MAXISorp plates (NUNC) were coated over night with 2 ug/ml streptavidin in PBS at room temperature, washed 4× and blocked for 1h at 37° C. in 2% BSA containing blocking buffer. […] Peptide-MHC monomers of the UV-exchange reaction were diluted 100 fold in blocking buffer. Samples were incubated for 1h at 37° C., washed four times, incubated with 2 ug/ml HRP conjugated anti-β2m for 1h at 37° C., washed again and detected with TMB solution that is stopped with […]. Absorption was measured at 450 nm. Candidate peptides that show a high exchange yield (preferably higher than 50%, most preferred higher than 75%) are generally preferred for a generation and production of antibodies or fragments thereof, and/or T cell receptors or fragments thereof, as they show sufficient avidity to the MHC molecules and prevent dissociation of the MHC complexes.
As for “147 (SLLEAVSFL; listed as Homo sapiens) [compound 147]”, the Peptide exchange result was ““+++” (≧50 = +++)”.
As for “148 (ALNPEIVSV; listed as Homo sapiens) [compound 148]”, the Peptide exchange result was ““++” (≧20% = ++)”.
On to “149 (NLLELFVQL; listed as Homo sapiens) [compound 149]”, for which the Peptide exchange result is reported as ““+++” (≧50 = +++)”.
Next, “151 (KILQQLVTL; listed as Homo sapiens) [compound 151]”: ““+++” (≧50 = +++)”; “153 (FLIANVLYL; listed as Homo sapiens) [compound 153]”: ““+” (≧10% = +)”; “154 (ALDDGTPAL; listed as Homo sapiens) [compound 154]”: ““++” (≧20% = ++)”.
Next, “155 (RVANLHFPSV; listed as Homo sapiens) [compound 155]”: ““+++” (≧50 = +++)”; “158 (KLFDVDEDGYI; listed as Homo sapiens) [compound 158]”: ““+++” (≧50 = +++)”; “159 (GLVGNPLPSV; listed as Homo sapiens) [compound 159]”: ““++++” (≧75% = ++++)”.
In the case of “160 (FLFDEEIEQI; listed as Homo sapiens) [compound 160]” it was ““+++” (≧50 = +++)”; in that of “161 (ALLEGVNTV; listed as Homo sapiens) [compound 161]”, ““+++” (≧50 = +++)”.
In the case of “162 (YQQAQVPSV; listed as Homo sapiens) [compound 162]”, the Peptide exchange entry was ““+++” (≧50 = +++)”.
Next, “163 (ALDEMGDLLQL; listed as Homo sapiens) [compound 163]”: ““+++” (≧50 = +++)”; “164 (ALLPQPKNLTV; listed as Homo sapiens) [compound 164]”: ““+++” (≧50 = +++)”; “165 (SLLDEIRAV; listed as Homo sapiens) [compound 165]”: ““+++” (≧50 = +++)”.
Next, “167 (KVLEVTEEFGV; listed as Homo sapiens) [compound 167]”: ““+++” (≧50 = +++)”.
For “168 (KILDADIQL; listed as Homo sapiens) [compound 168]”, the Peptide exchange entry is listed as ““++++” (≧75% = ++++)”.
Next, “169 (NLPEYLPFV; listed as Homo sapiens) [compound 169]”: ““+++” (≧50 = +++)”.
For “170 (RLQETLSAA; listed as Homo sapiens) [compound 170]”, the Peptide exchange result is ““+++” (≧50 = +++)”.
Next, “171 (LLLPLQILL; listed as Homo sapiens) [compound 171]”: ““+++” (≧50 = +++)”; “172 (VLYSYTIITV; listed as Homo sapiens) [compound 172]”: ““++” (≧20% = ++)”.
For the substance “173 (LLDSASAGLYL; listed as Homo sapiens) [compound 173]”, the Peptide exchange entry is recorded as ““+++” (≧50 = +++)”.
Next, “174 (ALAQYLITA; listed as Homo sapiens) [compound 174]”: ““+++” (≧50 = +++)”; “175 (YLFENISQL; listed as Homo sapiens) [compound 175]”: ““+++” (≧50 = +++)”.
Next, “176 (YLMEGSYNKVFL; listed as Homo sapiens) [compound 176]”: ““++” (≧20% = ++)”; “177 (YLLPEEYTSTL; listed as Homo sapiens) [compound 177]”: ““++++” (≧75% = ++++)”; “178 (ALTEIAFVV; listed as Homo sapiens) [compound 178]”: ““++++” (≧75% = ++++)”.
Take “179 (KVLNELYTV; listed as Homo sapiens) [compound 179]”: the Peptide exchange result is ““+++” (≧50 = +++)”.
In the case of “180 (FQIDPHSGLVTV; listed as Homo sapiens) [compound 180]” it was ““++” (≧20% = ++)”; in that of “181 (LLWAGTAFQV; listed as Homo sapiens) [compound 181]”, ““+++” (≧50 = +++)”; in that of “182 (MLLEAPGIFL; listed as Homo sapiens) [compound 182]”, ““+++” (≧50 = +++)”.
In the case of “183 (FGLDLVTEL; listed as Homo sapiens) [compound 183]” it was ““+++” (≧50 = +++)”; in that of “184 (YLMDINGKMWL; listed as Homo sapiens) [compound 184]”, ““+++” (≧50 = +++)”; in that of “185 (FLIDDKGYTL; listed as Homo sapiens) [compound 185]”, ““++” (≧20% = ++)”.
On to “186 (TLFFQQNAL; listed as Homo sapiens) [compound 186]”, for which the Peptide exchange entry is on record as ““++” (≧20% = ++)”.
In the case of “187 (RQISIRGIVGV; listed as Homo sapiens) [compound 187]” it was ““+++” (≧50 = +++)”.
In the case of “188 (GLFPVTPEAV; listed as Homo sapiens) [compound 188]”, the Peptide exchange result is ““+++” (≧50 = +++)”.
With “189 (ALQRKLPYV; listed as Homo sapiens) [compound 189]”, the Peptide exchange entry was ““+++” (≧50 = +++)”.
In the case of “190 (FLSSLTETI; listed as Homo sapiens) [compound 190]” it was ““+++” (≧50 = +++)”.
Consider “192 (KMLDGASFTL; listed as Homo sapiens) [compound 192]”, for which the Peptide exchange entry is ““+++” (≧50 = +++)”.
As for “193 (QLLDADGFLNV; listed as Homo sapiens) [compound 193]”, the Peptide exchange entry is ““+++” (≧50 = +++)”.
Next, “194 (ALPLFVITV; listed as Homo sapiens) [compound 194]”: ““+++” (≧50 = +++)”.
Next, “195 (GLFADLLPRL; listed as Homo sapiens) [compound 195]”: ““+++” (≧50 = +++)”; “196 (YLYSVEIKL; listed as Homo sapiens) [compound 196]”: ““++++” (≧75% = ++++)”.
Next, “197 (ALGPEGGRV; listed as Homo sapiens) [compound 197]”: ““++” (≧20% = ++)”; “200 (LLFGSVQEV; listed as Homo sapiens) [compound 200]”: ““+++” (≧50 = +++)”.
In the case of “201 (RLVDYLEGI; listed as Homo sapiens) [compound 201]”, the Peptide exchange result was ““+++” (≧50 = +++)”.
Next, “202 (ALLDQQGSRWTL; listed as Homo sapiens) [compound 202]”: ““+++” (≧50 = +++)”; “204 (KIAENVEEV; listed as Homo sapiens) [compound 204]”: ““++” (≧20% = ++)”; “205 (SLYPGTETMGL; listed as Homo sapiens) [compound 205]”: ““+++” (≧50 = +++)”.
For the substance “206 (VLQEGKLQKLAQL; listed as Homo sapiens) [compound 206]”, the Peptide exchange entry is recorded as ““+++” (≧50 = +++)”.
Next, “207 (GLTSTNAEV; listed as Homo sapiens) [compound 207]”: ““++” (≧20% = ++)”; “208 (KISPVTFSV; listed as Homo sapiens) [compound 208]”: ““+++” (≧50 = +++)”.
Next, “209 (KLIESKHEV; listed as Homo sapiens) [compound 209]”: ““++” (≧20% = ++)”.
Consider “210 (LLLNAVLTV; listed as Homo sapiens) [compound 210]”, for which the Peptide exchange entry is listed as ““++” (≧20% = ++)”.
In the case of “211 (LLWPGAALL; listed as Homo sapiens) [compound 211]” it was ““++” (≧20% = ++)”; in that of “212 (ALWDQDNLSV; listed as Homo sapiens) [compound 212]”, ““++” (≧20% = ++)”.
Next, “214 (FLLDLDPLLL; listed as Homo sapiens) [compound 214]”: ““+++” (≧50 = +++)”.
In the case of “216 (NLWEDPYYL; listed as Homo sapiens) [compound 216]” it was ““+++” (≧50 = +++)”.
Turning to “217 (ALIHPVSTV; listed as Homo sapiens) [compound 217]”, the Peptide exchange entry was ““++” (≧20% = ++)”.
Next, “218 (SALEELVNV; listed as Homo sapiens) [compound 218]”: ““++” (≧20% = ++)”; “219 (KLSDIGITV; listed as Homo sapiens) [compound 219]”: ““+++” (≧50 = +++)”.
In the case of “220 (LLQKFVPEI; listed as Homo sapiens) [compound 220]” it was ““++” (≧20% = ++)”; in that of “221 (ALYEEGLLL; listed as Homo sapiens) [compound 221]”, ““++” (≧20% = ++)”.
In the case of “222 (NLIENVQRL; listed as Homo sapiens) [compound 222]” it was ““++” (≧20% = ++)”.

These data come from patent US20170002055A1, “Novel peptides and combination of peptides for use in immunotherapy against ovarian cancer and other cancers” (immatics biotechnologies GmbH, priority 2015, published 2017).
